In PMC9482650, “Quantitative fragmentomics allow affinity mapping of interactomes” (Nature Communications, 2022) one finds pKd data, which are given here for 2 molecules.

Where a chain is given by its changes, count along the chain named.

T1: MPP7, Q5T2T1
T1 sequence (Q5T2T1 134-230, limits assumed, looked up): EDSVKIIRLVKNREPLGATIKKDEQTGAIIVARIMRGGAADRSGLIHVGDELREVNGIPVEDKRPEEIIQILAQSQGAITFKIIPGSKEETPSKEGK

T2: MPDZ_5, O75970
T2 sequence (O75970 695-796, limits assumed, looked up): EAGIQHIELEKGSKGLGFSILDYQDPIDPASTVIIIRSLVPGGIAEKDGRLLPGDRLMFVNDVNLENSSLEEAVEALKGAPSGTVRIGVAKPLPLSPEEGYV

T3: LIN7B, Q9HAP6
T3 sequence (Q9HAP6 88-185, limits assumed, looked up): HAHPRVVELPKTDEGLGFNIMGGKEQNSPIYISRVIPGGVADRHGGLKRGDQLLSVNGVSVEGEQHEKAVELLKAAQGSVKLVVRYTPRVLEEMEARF

T4: GRIP1_5, Q9Y3R0
T4 sequence (Q9Y3R0 568-668, limits assumed, looked up): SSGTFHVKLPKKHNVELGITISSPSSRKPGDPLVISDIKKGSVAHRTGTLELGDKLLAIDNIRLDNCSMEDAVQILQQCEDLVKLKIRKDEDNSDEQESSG

T5: TX1BP3, O14907
T5 sequence (O14907 10-122, limits assumed, looked up): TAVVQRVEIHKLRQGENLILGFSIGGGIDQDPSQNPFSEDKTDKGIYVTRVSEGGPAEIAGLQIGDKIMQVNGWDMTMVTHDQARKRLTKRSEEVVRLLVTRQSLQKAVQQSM

T6: APBA2_2, Q99767
T6 sequence (Q99767 654-744, limits assumed, looked up): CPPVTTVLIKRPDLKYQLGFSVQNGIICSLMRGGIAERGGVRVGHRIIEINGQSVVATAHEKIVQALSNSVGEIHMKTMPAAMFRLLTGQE

T7: NHERF3_4, Q5T2W1
T7 sequence (Q5T2W1 373-468, limits assumed, looked up): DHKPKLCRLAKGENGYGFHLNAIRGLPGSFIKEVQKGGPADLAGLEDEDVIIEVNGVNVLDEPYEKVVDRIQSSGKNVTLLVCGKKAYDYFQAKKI

T8: SIPA1L2, Q9P2F8
T8 sequence (Q9P2F8 945-1036, limits assumed, looked up): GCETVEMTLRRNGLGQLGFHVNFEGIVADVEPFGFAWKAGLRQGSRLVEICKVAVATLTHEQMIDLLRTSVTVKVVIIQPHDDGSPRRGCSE

T9: PDZD7_3, Q9H5P4
T9 sequence (Q9H5P4 857-944, limits assumed, looked up): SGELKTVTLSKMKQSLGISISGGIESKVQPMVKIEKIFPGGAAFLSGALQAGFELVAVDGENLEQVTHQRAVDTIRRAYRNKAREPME

T10: ARHGAP21, Q5T5U3
T10 sequence (Q5T5U3 45-169, limits assumed, looked up): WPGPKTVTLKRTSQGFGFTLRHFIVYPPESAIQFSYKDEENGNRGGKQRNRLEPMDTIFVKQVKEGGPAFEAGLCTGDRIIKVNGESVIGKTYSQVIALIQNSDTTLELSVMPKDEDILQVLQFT

T11: APBA1_2, Q02410
T11 sequence (Q02410 742-832, limits assumed, looked up): T6 sequence (Q99767 654-744, limits assumed, looked up) with K10R, K15R, A59P, Q65H, A66I, S70A, F84Y, G89A

T12: MPP2, Q14168
T12 sequence (Q14168 180-250, limits assumed, looked up): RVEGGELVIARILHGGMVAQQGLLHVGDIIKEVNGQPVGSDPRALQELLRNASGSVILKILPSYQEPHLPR

T13: NHERF3_3, Q5T2W1
T13 sequence (Q5T2W1 238-333, limits assumed, looked up): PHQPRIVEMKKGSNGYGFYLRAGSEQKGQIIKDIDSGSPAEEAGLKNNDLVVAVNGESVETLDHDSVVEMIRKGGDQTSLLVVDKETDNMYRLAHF

T14: SNTB1, Q13884
T14 sequence (Q13884 107-205, limits assumed, looked up): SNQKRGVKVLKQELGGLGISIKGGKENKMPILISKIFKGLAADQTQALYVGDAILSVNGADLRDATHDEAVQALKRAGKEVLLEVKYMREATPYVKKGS

B1: MTNR1A, P48039 (peptide)
chain: NNNVVKVDSV
B2: SLC16A7, O60669 (peptide)
chain: SVTSERETNI

Sequence of CASK, O14936 (O14936 487-570): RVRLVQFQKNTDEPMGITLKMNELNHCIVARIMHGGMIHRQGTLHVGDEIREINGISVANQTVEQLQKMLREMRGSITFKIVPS
Sequence of GRIP2_4, Q9C0E4 (Q9C0E4 446-548): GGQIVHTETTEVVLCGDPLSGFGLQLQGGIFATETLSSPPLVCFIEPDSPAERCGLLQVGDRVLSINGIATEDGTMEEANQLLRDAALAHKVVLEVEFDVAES
Sequence of ARHGEF12, Q9NZN5-2 (Q9NZN5 other isoform, or with tags, fused parts or gaps): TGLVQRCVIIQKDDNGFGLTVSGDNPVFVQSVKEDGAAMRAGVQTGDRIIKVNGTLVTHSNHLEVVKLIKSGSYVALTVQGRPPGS
Sequence of MAST2, Q6P0Q8 (Q6P0Q8 1099-1202): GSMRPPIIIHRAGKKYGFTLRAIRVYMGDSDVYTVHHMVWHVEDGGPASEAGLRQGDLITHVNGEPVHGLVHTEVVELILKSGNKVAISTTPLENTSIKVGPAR
Sequence of Inadl_4, Q8NI35 (Q8NI35 547-651): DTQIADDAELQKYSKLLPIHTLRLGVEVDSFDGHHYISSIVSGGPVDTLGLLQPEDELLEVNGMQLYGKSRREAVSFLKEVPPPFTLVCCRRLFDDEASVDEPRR

The target of the first assay is PDLIM1, O00151. Briefly: holdup assay. Also on record: key: below the threshold = too weak to quantify, mostly under pKd 3.1 to 4. The conditions noted are these: plain residues with an end cap or a label only (N-terminal biotin on a linker: ado-ado).
Sequence of PDLIM1, O00151 (O00151 1-87): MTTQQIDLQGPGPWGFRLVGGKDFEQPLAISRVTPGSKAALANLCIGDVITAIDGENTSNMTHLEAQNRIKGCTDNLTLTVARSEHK
Consider B1, for which the pKd – broadly, the Kd on a negative log10 scale, so that one unit is a factor of ten – is “below the threshold”.
Still for that read-out and setting: under B2 stands “below the threshold”.

In another assay the target is FRMPD2_2, Q68DX3. Briefly: holdup assay. Set-up: key: below the threshold = too weak to quantify, mostly under pKd 3.1 to 4. To be noted: plain residues with an end cap or a label only (N-terminal biotin on a linker: ado-ado).
Sequence of FRMPD2_2, Q68DX3 (Q68DX3 944-1038): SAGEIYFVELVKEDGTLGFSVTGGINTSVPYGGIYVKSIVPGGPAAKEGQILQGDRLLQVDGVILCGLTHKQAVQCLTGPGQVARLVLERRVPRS
In the case of B1, the pKd result is “below the threshold”.
As to B2, the pKd result is “below the threshold”.

In a further assay the target is PTPN3, P26045. Briefly: holdup assay. Set-up: key: below the threshold = too weak to quantify, mostly under pKd 3.1 to 4. To be noted: plain residues with an end cap or a label only (N-terminal biotin on a linker: ado-ado).
Sequence of PTPN3, P26045 (P26045 505-587): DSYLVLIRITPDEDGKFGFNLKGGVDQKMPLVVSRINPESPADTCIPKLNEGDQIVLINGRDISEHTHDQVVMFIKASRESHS
Take B1: the pKd result is “below the threshold”.
Still for that read-out and setting: under B2 stands 4.97.

The target in the next assay is T1, MPP7, Q5T2T1. In words: holdup assay. Set-up: key: below the threshold = too weak to quantify, mostly under pKd 3.1 to 4. To be noted: plain residues with an end cap or a label only (N-terminal biotin on a linker: ado-ado).
For B1, the pKd result is given as “below the threshold”.
As to B2, the pKd came to 3.48.

Another assay has as its target Inadl_4, Q8NI35. In words: holdup assay. Also on record: key: below the threshold = too weak to quantify, mostly under pKd 3.1 to 4. To be noted: plain residues with an end cap or a label only (N-terminal biotin on a linker: ado-ado).
Regarding B1, the negative logarithm of the Kd (pKd) result is reported as “below the threshold”.
Same read-out and setting: to B2 belongs “below the threshold”.

Another assay has as its target MAST2, Q6P0Q8. Briefly: holdup assay. Set-up: key: below the threshold = too weak to quantify, mostly under pKd 3.1 to 4. To be noted: plain residues with an end cap or a label only (N-terminal biotin on a linker: ado-ado).
As to B1, the pKd result is listed as “below the threshold”.
Still for that read-out and setting: to B2 belongs 4.84.

The next assay deals with DLG4_1, P78352. Briefly: holdup assay. The conditions noted are these: plain residues with an end cap or a label only (N-terminal biotin on a linker: ado-ado). Set-up: key: below the threshold = too weak to quantify, mostly under pKd 3.1 to 4.
Sequence of DLG4_1, P78352 (P78352 62-152): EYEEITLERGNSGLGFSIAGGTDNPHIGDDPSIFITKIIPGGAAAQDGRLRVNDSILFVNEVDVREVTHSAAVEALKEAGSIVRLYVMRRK
Regarding B1, the pKd result is “below the threshold”.
On the same count and under the same terms, under B2 stands “below the threshold”.

A further assay deals with MAGI2_6, Q86UL8. In words: holdup assay. Also on record: key: below the threshold = too weak to quantify, mostly under pKd 3.1 to 4. The conditions noted are these: plain residues with an end cap or a label only (N-terminal biotin on a linker: ado-ado).
Sequence of MAGI2_6, Q86UL8 (Q86UL8 1141-1229): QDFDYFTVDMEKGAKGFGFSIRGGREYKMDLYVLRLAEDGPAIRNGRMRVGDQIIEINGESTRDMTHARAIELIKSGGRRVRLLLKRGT
With B1, the pKd result is reported as “below the threshold”.
The same measure, in the same setting: under B2 stands 3.5.

A further assay addresses T2, MPDZ_5, O75970. Briefly: holdup assay. Also on record: key: below the threshold = too weak to quantify, mostly under pKd 3.1 to 4. To be noted: plain residues with an end cap or a label only (N-terminal biotin on a linker: ado-ado).
B1: the pKd entry is on record as “below the threshold”.
Same read-out and setting: to B2 belongs “below the threshold”.

Another assay concerns the target CASK, O14936. Briefly: holdup assay. To be noted: plain residues with an end cap or a label only (N-terminal biotin on a linker: ado-ado). Also on record: key: below the threshold = too weak to quantify, mostly under pKd 3.1 to 4.
Regarding B1, the pKd entry was “below the threshold”.
Consider B2, for which the pKd result is given as “below the threshold”.

For another assay, the target named is T3, LIN7B, Q9HAP6. In words: holdup assay. Set-up: key: below the threshold = too weak to quantify, mostly under pKd 3.1 to 4. The conditions noted are these: plain residues with an end cap or a label only (N-terminal biotin on a linker: ado-ado).
B1 registered a pKd of 3.7.
The same measure, in the same setting: to B2 belongs 3.62.

The target of the next assay is T4, GRIP1_5, Q9Y3R0. In words: holdup assay. Set-up: key: below the threshold = too weak to quantify, mostly under pKd 3.1 to 4. To be noted: plain residues with an end cap or a label only (N-terminal biotin on a linker: ado-ado).
B1: the pKd entry was “below the threshold”.
In the case of B2, the pKd entry is given as “below the threshold”.

The next assay deals with T5, TX1BP3, O14907. In words: holdup assay. Also on record: key: below the threshold = too weak to quantify, mostly under pKd 3.1 to 4. The conditions noted are these: plain residues with an end cap or a label only (N-terminal biotin on a linker: ado-ado).
Regarding B1, the pKd entry is given as “below the threshold”.
Same read-out and setting: to B2 belongs “below the threshold”.

For the next assay, the target named is T6, APBA2_2, Q99767. In words: holdup assay. Set-up: key: below the threshold = too weak to quantify, mostly under pKd 3.1 to 4. To be noted: plain residues with an end cap or a label only (N-terminal biotin on a linker: ado-ado).
B1: the pKd result is “below the threshold”.
On the same count and under the same terms, to B2 belongs “below the threshold”.

Another assay concerns the target T7, NHERF3_4, Q5T2W1. Briefly: holdup assay. To be noted: plain residues with an end cap or a label only (N-terminal biotin on a linker: ado-ado). Also on record: key: below the threshold = too weak to quantify, mostly under pKd 3.1 to 4.
In the case of B1, the negative-log Kd (pKd) entry is recorded as “below the threshold”.
The same measure, in the same setting: under B2 stands “below the threshold”.

A further assay has as its target GRIP2_4, Q9C0E4. In words: holdup assay. Also on record: key: below the threshold = too weak to quantify, mostly under pKd 3.1 to 4. The conditions noted are these: plain residues with an end cap or a label only (N-terminal biotin on a linker: ado-ado).
Regarding B1, the pKd entry is reported as “below the threshold”.
On the same count and under the same terms, to B2 belongs “below the threshold”.

Another assay addresses T8, SIPA1L2, Q9P2F8. Briefly: holdup assay. The conditions noted are these: plain residues with an end cap or a label only (N-terminal biotin on a linker: ado-ado). Also on record: key: below the threshold = too weak to quantify, mostly under pKd 3.1 to 4.
Turning to B1, the pKd result is recorded as “below the threshold”.
Still for that read-out and setting: to B2 belongs “below the threshold”.

Another assay addresses T9, PDZD7_3, Q9H5P4. Briefly: holdup assay. Set-up: key: below the threshold = too weak to quantify, mostly under pKd 3.1 to 4. To be noted: plain residues with an end cap or a label only (N-terminal biotin on a linker: ado-ado).
Turning to B1, the pKd entry was “below the threshold”.
On to B2, for which the pKd was determined as 4.69.

For another assay, the target named is T10, ARHGAP21, Q5T5U3. In words: holdup assay. Set-up: key: below the threshold = too weak to quantify, mostly under pKd 3.1 to 4. To be noted: plain residues with an end cap or a label only (N-terminal biotin on a linker: ado-ado).
Consider B1, for which the pKd entry was “below the threshold”.
For B2, the pKd result is recorded as “below the threshold”.

For a further assay, the target named is T11, APBA1_2, Q02410. In words: holdup assay. Set-up: key: below the threshold = too weak to quantify, mostly under pKd 3.1 to 4. To be noted: plain residues with an end cap or a label only (N-terminal biotin on a linker: ado-ado).
Molecule B1 showed a pKd of 3.92.
Same read-out and setting: to B2 belongs “below the threshold”.

A further assay addresses ARHGEF12, Q9NZN5-2. Briefly: holdup assay. To be noted: plain residues with an end cap or a label only (N-terminal biotin on a linker: ado-ado). Set-up: key: below the threshold = too weak to quantify, mostly under pKd 3.1 to 4.
B1: the pKd result is “below the threshold”.
The same measure, in the same setting: under B2 stands 3.67.

The target of a further assay is T12, MPP2, Q14168. Briefly: holdup assay. Set-up: key: below the threshold = too weak to quantify, mostly under pKd 3.1 to 4. The conditions noted are these: plain residues with an end cap or a label only (N-terminal biotin on a linker: ado-ado).
Take B1: the pKd result was “below the threshold”.
The same measure, in the same setting: under B2 stands “below the threshold”.

Another assay deals with T13, NHERF3_3, Q5T2W1. Briefly: holdup assay. Also on record: key: below the threshold = too weak to quantify, mostly under pKd 3.1 to 4. To be noted: plain residues with an end cap or a label only (N-terminal biotin on a linker: ado-ado).
As to B1, the negative-log Kd (pKd) result is given as “below the threshold”.
Still for that read-out and setting: under B2 stands “below the threshold”.

A further assay concerns the target T14, SNTB1, Q13884. Briefly: holdup assay. Set-up: key: below the threshold = too weak to quantify, mostly under pKd 3.1 to 4. To be noted: plain residues with an end cap or a label only (N-terminal biotin on a linker: ado-ado).
Regarding B1, the pKd result is “below the threshold”.
Still for that read-out and setting: to B2 belongs 5.38.
